# Experiment: soluble on expression in E. coli; label from the status in PepcDB or PDB records
row,Sequence,soluble on expression in E. coli
1,ADFDYVVVGAGNAGNVVAARLTEDPDVSVLVLEAGVSDENVLGAEAPLLAPGLVPNSIFDWNYTTTAQAGYNGRSIAYPRGRMLGGSSSVHYMVMMRGSTEDFDRYAAVTGDEGWNWDNIQQFVRKNEMVVPPADNHNTSGEFIPAVHGTNGSVSISLPGFPTPLDDRVLATTQEQSEEFFFNPDMGTGHPLGISWSIASVGNGQRSSSSTAYLRPAQSRPNLSVLINAQVTKLVNSGTTNGLPAFRCVEYAEQEGAPTTTVCAKKEVVLSAGSVGTPILLQLSGIGDENDLSSVGIDTIVNNPSVGRNLSDHLLLPAAFFVNSNQTFDNIFRDSSEFNVDLDQWTNTRTGPLTALIANHLAWLRLPSNSSIFQTFPDPAAGPNSAHWETIFSNQWFHPAIPRPDTGSFMSVTNALISPVARGDIKLATSNPFDKPLINPQYLSTEFDIFTMIQAVKSNLRFLSGQAWADFVIRPFDPRLRDPTDDAAIESYIRDNANTIFHPVGTASMSPRGASWGVVDPDLKVKGVDGLRIVDGSILPFAPNAHTQGPIYLVGKQGADLIKADQ,soluble
2,MNHTEIRVVTGPANYFSHAGSLERLTDFFTPEQLSHAVWVYGERAIAAARPYLPEAFERAGAKHLPFTGHCSERHVAQLAHACNDDRQVVIGVGGGALLDTAKALARRLALPFVAIPTIAATCAAWTPLSVWYNDAGQALQFEIFDDANFLVLVEPRIILQAPDDYLLAGIGDTLAKWYEAVVLAPQPETLPLTVRLGINSACAIRDLLLDSSEQALADKQQRRLTQAFCDVVDAIIAGGGMVGGLGERYTRVAAAHAVHNGLTVLPQTEKFLHGTKVAYGILVQSALLGQDDVLAQLITAYRRFHLPARLSELDVDIHNTAEIDRVIAHTLRPVESIHYLPVTLTPDTLRAAFEKVEFFRI,not soluble
3,MAYSEKVIDHYENPRNVGKLDAADPNVGTGMVGAPACGDVMRLQIKVNEQGVIEDAKFKTYGCGSAIASSSLATEWMKGKTLDEAETIKNTTIAEELALPPVKIHCSVLAEDAIKAAVRDYKQKKGLL,not soluble
4,VARADESLQQVVMAYFGVQFKSEQKAIALKAMQHIVQSFSLDNGPQNHDITHHTDNQGYENYIVVGYWRDPGAYCRWFRSTEVSHWWDSDERLNDGIGYFREIVIPRADQFETLYAFKEDLPGVGAVMDDISDDIQEHGYWGSARERF,not soluble
5,MSCFRGDVDFCPECGNILPLPSRLNTITCPRCSFKISVQDFTSQVIKSSVMFNPLDQSNVAVGSAEDAELKGPVIDRKCSRCNKEGMVYHTRQMRSADEGQTVFFTCIHCRFQEKEDS,not soluble
6,MTNITASIVLYNNPIDQIRQCIESMQADTRVHVLLVDNSEKKGGYTGLAADNVEILDAPGNVGFGRGHNLVLGRLAALRSEVHLVVNPDIVVSAGCVQAVADVLRQRKDVTLVGPRVVSPDGALYRSCKLLPTPWNLFARRFAPRQLYAAADARYELEAFGYDRELRLHNLSGAFLAFRSEAFTALGGFDPRYFMYLEDVDICRRAAGLGAVIFLPQAEVVHEHGKGSYRSWRLLREHMRSAILYFNRFGWFVDAERRLLNRETLARVNDMRSVVLEHHHHHH,not soluble
7,SEKTQETVQRILLEPYKYLLQLPGKQVRTKLSQAFNHWLKVPEDKLQIIIEVTEMLHNASLLIDDIEDNSKLRRGFPVAHSIYGIPSVINSANYVYFLGLEKVLTLDHPDAVKLFTRQLLELHQGQGLDIYWRDNYTCPTEEEYKAMVLQKTGGLFGLAVGLMQLFSDYKEDLKPLLNTLGLFFQIRDDYANLHSKEYSENKSFCEDLTEGKFSFPTIHAIWSRPESTQVQNILRQRTENIDIKKYCVHYLEDVGSFEYTRNTLKELEAKAYKQIDARGGNPELVALVKHLSKMFKEENE,soluble
8,MSEMNAVYNVKQYILNLIMQNKLEYGDQLPSNLSIARELNVKTDDVYEAIQALITEQVIKDNFEEGTSVKSLPPFFYPLNELISIGQMIKNAGFECGTEYLNFDEQPATMLDANLLSVEEGYPVTIIERLRTADGEPVVYCLDKIAKKELTCTEYQMSNGSILSAIKEQSNHNICYADTEIEAVNYEPRISEVLNASPHEGLILLKITHYNELDEPILYSLNYMKNSLVQFKITRKI,not soluble
9,MSLKKKLLLMVSVLAVLFVAAACSSKPEAKINTEPYSDRQTMLGTYVQIRIYDDGKEDVLPKAFARVKELGDKITVNQPGSEIDEINQEAGVKPVKVSDDLYPLLKKAYEYSKDSRGGFDMAIGPITSMWHIGFDDARKPSQAEIDQALKLVDYTKVKFNDKEQTVYLEEKGMQLDLGAIAKGFITDEVVKVLKDNGVTTAIVDLGGNVYVLGHSPRGKDMDWTVGIQDPNKARNTVLGQVKESNKTLVTSGIYERYLKVDGKTYHHLFDRETGYPFDNDIAGVTIITDKSIDGDGLSTAVFSMGVKKGLEYVESLKGTDAIFVTKDDKVYISKDIEGNFEIGKDSGYTMGNRADLKEGGSHHHHHH,soluble
10,LNLSEKQVVKIGILQYVTHDALDAIEKGVEDGLAQEGYKGKKVKLTVLNAEADQSKIQAMSKQLVNHHNDILIGIATPSAQGLAASTKDTPIIMGAVSDPLGAKLVTNMKKPTTNVTGLSNVVPTKQTVQLIKDITPNIKRIGILYASSEDNSVSQVTEFTKYAQKAGLEVLKYSVPSTNEIKTSMSVMTKKVDAVFVPQDNTIASAFRTVIVAANQANIPVYSSVDTMVEQGSIASVAQSQYGLGLETAKQAIKVLRGKPVKDVPVKVIDTGKPSLNLKAAKHLGIKIPKKIMKQAEITVKVD,not soluble
11,MKRIPYALVDVFAPAPGAGNRVAVVLDARGMSPEEMQAVAQSLGAAEAAFLLERTGAALSVRFFAPGGEVEFSGHAAVAVGLTAARTGLVPEGTTRLYLHTPTEVLPVELVLEAGEPRKAWVRGPAPRFRDLPPYRALREVLEALGSDERYLHRGLPYGVAFTGLWSLFVPLIAPGVVDALEPEMERLKALCFRLDVATVHAYAPMGPRSFYARDFAPLLGIPEDPVTGSANAALGALLARAGVVPRREGKVLLTVYQGHHLGNPGVVEVQVEYSPTGEPYSVQIGGEAVIVQTGEV,soluble
12,MSLSPSPAIPSNTDYPGPHSFDVSFQQSSTAKSATWTYSTELKKLYCQIAKTCPIQIKVMTPPPQGAVIRAMPVYKKAEHVTEVVKRCPNHELSREFNEGQIAPPSHLIRVEGNSHAQYVEDPITGRQSVLVPYEPPQVGTEFTTVLYNFMCNSSCVGGMNRRPILIIVTLETRDGQVLGRRCFEARICACPGRDRKADEDSIRKQQVSDSTKNGDGTKRPFRQNTEGHHHHHH,soluble
13,SSPSSPADWAKKLTDAVLRQKAGETLTAADRDFSNADFRNITFSKILPPSFMERDGDIIKGFNFSNSKFTYSDISHLHFDECRFTYSTLSDVVCSNTKFSNSDMNEVFLQYSITTQQQPSFIDTTLKNTLIRHKANLSGVILNEPDNSSPPSVSGGGNFIRLGDIWLQMPLLWTENAVDGFLNHEHNNGKSILMTIDSLPDKYSQEKVQAMEDLVKSLRGGRLTEACIRPVESSLVSVLAHPPYTQSALISEWLGPVQERFFAHQCQTYNDVPLPAPDTYYQQRILPVLLDSFDRNSAAMTTHSGLFNQVILHCMTGVDCTDGTRQKAAALYEQYLAHPAVSPHIHNGLFGNYDGSPDWTTRAADNFLLLSSQDSDTAMMLSTDTLLTMLNPTPDTAWDNFYLLRAGENVSTAQISPVELFRHDFPVFLAAFNQQATQRRFGELIDIILSTEEHGELNQQFLAATNQKHSTVKLIDDASVSRLATIFDPLLPEGKLSPAHYQHILSAYHLTDATPQKQAETLFCLSTAFARYSSSAIFGTEHDSPPALRGYAEALMQKAWELSPAIFPSSEQFTEWSDRFHGLHGAFTCTSVVADSMQRHARKYFPSVLSSILPLAWA,soluble
14,MNQDLSQTFLAITRNSTDLEWLQGALAPLGQVVGADGSLDELLALVDVTFANLVFVGLDREHVVAQAALIEGALEAKPMLAIVALGDGMDNQLVLNAMRAGARDFVAYGSRSSEVAGLVRRLSKRLPAVTPNTQLGGLTVLYGAQGDGDGALLASHLALVVQKSGQQTLLLDLGLPRGDSLALLGLESSFHFGDALRHLRRLDATLIDSAFTSAEAGLRILAYASHDAPLEHTSAAELYMLLSALRQHFQHIVVNLVGQPDSEALRTFVSHCDKLLWCTDQNVLDCRRNLAVLNHWREKGMKLEHARLLVDRYLRTVAPDSETLGKTFGLEVIAVLAYSPEVRLNAKNQGVTLFELAPREALTQSLRTLGERLAKRSQGLPKPKAGWLNRIMGGRLEHHHHHH,not soluble
15,MGSDKIHHHHHHMNSPAMSPNTLGIDFGTSNSAAGLAVAGRPWLVELEPGETTLPTAVFFDSDSKKMRIGRSATRALIEGEEGRFMRALKSLLGTSLLYEKRRLGGVTMDFTDVIAHFLREVKTRAETATRMEFTHALSGRPVKFHSKDETRNARAEEDLRHCYKKAGFQDVTFMYEPEAALRAARPHPGIGLVVDIGGGTSDFTCFEQDATGGTRILASHGLRLGGTDFDRQISIDHVMPHLGRGAMIRNSFGEGSLPAPNRIFNDLATWQMIPFLYGLDTRRAARDLAQNAEDPTTLNRLVQVLEDELGHDLAFATEAGKIRANGSDDAGAQIDLRLIERGLSAALPRAALEASLAQMVREIQDEAKETLRLADVAPEAVTRCVMVGGSALLMAVRAALQDLCPTAEIETERALTAVADGLALETQDGAA,not soluble
16,TTPAPESNRKYIIAVTACPTGIAHTYMAEDALKKKAKEMGVDIKVETNGSEGIKNRLTAEDIARADGVIVAADKKVEMNRFDGKKLVNRPVSDGIRKTEELINLAISGEAPTFHGSDSAA,not soluble
17,MFLFSELCRRLSPDAVRIVSDHRIVHLLTDSRTLSEPATTLFFALRTTSGDGHLYIRDLYDRGVRSFVISDPSKDLMEKMPQANWMRVAHPLDALQRIAALRRSMFDIPVIGITGSNGKTIVKEFLYQLLRKDYRIVRSPRSYNSQIGVPLSVWQMAEEHTLGIFEAGISQMGEMERLE,not soluble
18,MGSDKIHHHHHHMDSGMNEKTTAELEHLRGLIDGVDQQLLHLLRKRLDLVAQVGTVKHGAGLPIYAPQREAAMLAKRREEAKNMGIAPQLIEDILRRLMRESYLNEKDVGFKQVKKDLGSVVIVGGKGQLGGLFSQMLTLSGYQVNLLDKDDWQQADSLFADAGMVLVTVPIAITCELIREKLTQLPADCILADLTSIKTEPVKAMLEAHSGPVVGFHPMFGPDVGSLAKQVVVVCHGRSPEKYQWLLEQIAIWGARIVEAEPERHDSAMQLVQAMRHFSTFVYGLNLCKEEADIDTLLQFSSPIYRLELAMVGRLFAQSPELYADIIFAQQDSQHAIGDYLDNYREALELLKRGDRNEFIKQFQSVAKWFGDFAPQFQRESRIMLQSVNDMKTN,not soluble
19,SKVALITGVTGQDGSYLAEFLLEKGYEVHGIKRRASSFNTERVDHIYQDPHTCNPKFHLHYGDLSDTSNLTRILREVQPDEVYNLGAMSHVAVSFESPEYTADVDAMGTLRLLEAIRFLGLEKKTRFYQASTSELYGLVQEIPQKETTPFYPRSPYAVAKLYAYWITVNYRESYGMYACNGILFNHESPRRGETFVTRKITRAIANIAQGLESCLYLGNMDSLRDWGHAKDYVKMQWMMLQQEQPEDFVIATGVQYSVRQFVEMAAAQLGIKLRFEGTGVEEKGIVVSVTGHDAPGVKPGDVIIAVDPRYFRPAEVETLLGDPTKAHEKLGWKPEITLREMVSEMVANDLEAAKKHSLLKSHGYDVAIALES,soluble
20,MAHRTFRLCRLRIRRLRDHPLRQDGMVDYSTTATTNTLYLLHTGHHVPPPPSHRNPPFSFRSFRPPIQPCSPNSHHVDNVIILASAIK,not soluble

# — the DeepSol protein solubility set
